Test results from patent US20100169995A1 (RESEARCH FOUNDATION OF STATE UNIVERSITY OF NEW YORK, published 2010).

B2: IQGAP2 (mouse, endogenous, liver lysate) (other, UniProt Q3UQ44 1-1575, looked up)
chain: MPHEELPSLQRPRYGSIVDDERLSAEEMDERRRQNIAYEYLCHLEEAKRWMEVCLVEELPPTTELEEGLRNGVYLAKLAKFFAPKMVSEKKIYDVEQTRYKKSGLHFRHTDNTVQWLRAMEAIGLPKIFYPETTDVYDRKNIPRMIYCIHALSLYLFKLGIAPQIQDLLGKVDFTEEEISNMRKELEKYGIQMPAFSKIGGILANELSVDEAALHAAVIAINEAIEKGVAKQTIITLRNPNAVLTCVDDSLSQEYQKELWEAKKKKEESAKLKNSCISEEERDAYEELLTQAEIQSNISTVNRMAAVDHINAVLQEGDPENTLLALKKPEAQLPAVYPFAAVMYQNELFNLQKQNTSNYLAHEELLIAVEMLSAVALLNQALESSDLVAVQNQLRSPTIGFNNLDEAHVDRYADALLSVKQEALSQGQDTLSWNEIQNCIDMINNQIQEENDRMVVLGYINEAIDAGNPLKTLDTLLLPTANIRDVDPDCAQHYQDVLFYTKSQKLGDPKNVSKVLWLDEIQQAINEANVDENRAKQWVTLVVDVNECLDRKQSDHILTALKSSPSNIHNILPECANKYYDTLVKAKESKTDNESSEGSWVTLNVQEKYNYYYNTDSKEGSWVPPELCLSKESWLTGEEIEDIVEEVTSDYIREKLWSASEDLLVRFEATTLGPALREEFEARKAFLYEQTESVVKIQAFWKGFKQRQEYLHRQQVFAGNVDSVVKIQSWFRMVTARKSYLSRLRYFEDHKNEIVKIQSLLRASKARDDYKALVGSENPPLTVIRKFVYLLDQSDLDFQEELEVARLREEVVTKIRANQQLEKDLNLMDIKIGLLVKNRITLEDVISHRKKLNKKKGGEIEILNNTDNKGIKSLSKERRKTLETYQQLFYLLQTKPSYLAKLIFQMPQNKSTKFMDTVIFTLYNYASNQREEYLLLKLFKTALEEEIKSKVDQVQDIVTGNPTVIKMVVSFNRGARGQNTLRQLLAPVVKEIIEDKALVINTNPVEVYKAWVNQLETQTGEASKLPYDVTTEQALTYPEVKNKLEASIENLRKVTDKVLGSIISSLDLLPYGLRYIAKVLKNSIREKFPDATEEELLKIVGNLLYYRYMNPAIVAPDGFDIIDMTAGGQINSNQRRNLGSVAKVLQHAASNKLFEGENEHLSSMNNYLSETYQEFRKYFQEACDVPEPEEKFNMDKYTDLVTVSKPVIYISIEEIINTHLLLLEHQDAIATEKSDLLNELLESLGEVPTVESFLGEGAVDPNDPNKENTLNQLSKTEISLSLTSKYDVKDGEAVDGRSLMIKTKKLIIDVTRNQPGSTLTEILETPATGQQELEHAKDMESRAVVDSRTPEEGKQSQAVIEDARLPLEQKKRKIQRNLRTLEQTGHVSSKNKYQDILNEIAKDIRNQRIHRKLRKAELSKLQQTLNALNKKAAFYEDQINYYDTYIKTCVDNLKRKNSRRSIKLDGKAEPKGTKRVKPVRYTAAKLHDKGVLLGIDDLQTNQFKNVMFDIIATEDMGIFDVRSKFLGVEMEKVQLNIQDLLQMQYEGVAVMKMFDKVKVNVNLLIYLLNKKFYGK

Legend:
[1] = biological target: B2; test: co-immunoprecipitation from mouse whole-liver lysates, immunoblot detection
Description: (§1) To further probe the relationships between IQGAP1, IQGAP2, β-catenin, and E-cadherin, a series of immunoprecipitation experiments were conducted using whole-liver lysates from Iqgap1^{-/-}, Iqgap2^{-/-}, and wildtype mice. […] In contrast, there was no evidence for specific interaction between E-cadherin and IQGAP2 in either E-cadherin- or IQGAP2-specific immunoprecipitations. […] Using normal hepatocytes, however, neither IQGAP1- nor IQGAP2-specific pull-down assays coprecipitated the corresponding homologous protein. Transient transfections of […] (which endogenously express IQGAP1) were subsequently used as an in vitro model system to specifically address the existence of putative IQGAP1-IQGAP2 heterodimers. As evident in FIG. 15B, IQGAP1 or IQGAP2 were not pulled down by reciprocal immunoprecipitations. Thus, while IQGAP1 and IQGAP2 are normally found as components of a broader quarternary scaffolding complex in hepatocytes, there appears to be no evidence that their presence within this scaffold occurs via direct (heterodimeric) interactions.
(§2) Immunoprecipitation experiments were completed using freshly isolated murine livers essentially as described previously (Schmidt, V. A., et al. 2003. Blood 101:3021-3028). In brief, intact livers were homogenized in 25 mM HEPES-0.15 M NaCl buffer, pH 7.45, supplemented with 0.1% Triton X-100 and standard protease inhibitors. […]

[2] = biological target: IQGAP1 (mouse, endogenous, liver lysate) (mouse, UniProt Q9JKF1 2-1657); test: reciprocal co-immunoprecipitation from normal mouse hepatocyte/liver lysates, immunoblot detection
Description: as §1, §2

[3] = biological target: human IQGAP1 (full-length cDNA, transiently expressed in COS1 cells) (human, UniProt P46940 2-1657); test: reciprocal co-immunoprecipitation from lysates of transiently transfected COS1 cells, immunoblot detection
Description: as §1, §2

Sequence of human IQGAP1 (full-length cDNA, transiently expressed in COS1 cells) (P46940 2-1657 limits assumed): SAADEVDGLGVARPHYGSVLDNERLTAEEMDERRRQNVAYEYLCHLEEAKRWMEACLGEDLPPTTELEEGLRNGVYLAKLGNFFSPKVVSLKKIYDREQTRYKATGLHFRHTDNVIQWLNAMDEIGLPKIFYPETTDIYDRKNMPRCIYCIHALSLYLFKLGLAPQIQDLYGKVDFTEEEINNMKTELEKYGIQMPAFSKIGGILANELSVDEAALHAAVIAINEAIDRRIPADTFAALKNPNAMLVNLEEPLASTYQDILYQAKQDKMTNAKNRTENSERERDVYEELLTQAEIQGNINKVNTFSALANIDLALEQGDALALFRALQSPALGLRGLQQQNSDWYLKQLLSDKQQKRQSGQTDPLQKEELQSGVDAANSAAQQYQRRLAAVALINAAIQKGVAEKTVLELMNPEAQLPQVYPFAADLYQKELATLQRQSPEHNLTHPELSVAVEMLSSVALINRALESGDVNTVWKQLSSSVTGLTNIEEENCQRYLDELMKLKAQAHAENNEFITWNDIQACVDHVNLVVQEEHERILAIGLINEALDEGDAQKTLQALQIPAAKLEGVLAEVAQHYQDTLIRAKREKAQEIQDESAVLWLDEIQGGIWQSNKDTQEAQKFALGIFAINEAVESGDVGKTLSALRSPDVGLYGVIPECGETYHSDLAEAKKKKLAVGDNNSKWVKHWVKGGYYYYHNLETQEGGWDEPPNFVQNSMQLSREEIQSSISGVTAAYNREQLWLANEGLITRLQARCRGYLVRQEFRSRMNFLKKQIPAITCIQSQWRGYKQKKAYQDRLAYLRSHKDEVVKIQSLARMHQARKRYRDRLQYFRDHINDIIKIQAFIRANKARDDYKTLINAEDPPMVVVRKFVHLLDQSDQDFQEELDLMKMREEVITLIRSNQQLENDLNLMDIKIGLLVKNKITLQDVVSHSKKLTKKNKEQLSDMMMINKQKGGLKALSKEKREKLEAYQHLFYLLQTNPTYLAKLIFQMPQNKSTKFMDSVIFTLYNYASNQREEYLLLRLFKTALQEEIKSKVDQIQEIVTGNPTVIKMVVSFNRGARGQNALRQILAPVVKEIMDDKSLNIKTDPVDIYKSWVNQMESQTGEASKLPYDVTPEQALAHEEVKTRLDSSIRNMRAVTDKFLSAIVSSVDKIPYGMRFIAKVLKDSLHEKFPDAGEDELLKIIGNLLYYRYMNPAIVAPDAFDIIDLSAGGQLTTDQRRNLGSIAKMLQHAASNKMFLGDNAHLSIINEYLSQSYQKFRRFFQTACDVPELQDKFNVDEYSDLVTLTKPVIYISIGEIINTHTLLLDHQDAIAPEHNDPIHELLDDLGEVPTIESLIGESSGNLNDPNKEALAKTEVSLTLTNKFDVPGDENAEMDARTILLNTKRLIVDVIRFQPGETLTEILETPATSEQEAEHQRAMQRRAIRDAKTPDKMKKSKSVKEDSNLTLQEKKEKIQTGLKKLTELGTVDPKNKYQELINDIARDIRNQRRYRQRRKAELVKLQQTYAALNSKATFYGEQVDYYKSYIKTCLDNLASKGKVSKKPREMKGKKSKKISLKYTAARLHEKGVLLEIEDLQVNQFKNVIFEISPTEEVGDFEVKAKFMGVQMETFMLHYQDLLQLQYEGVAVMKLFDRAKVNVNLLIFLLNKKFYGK
Sequence of IQGAP1 (mouse, endogenous, liver lysate) (Q9JKF1 2-1657 limits assumed): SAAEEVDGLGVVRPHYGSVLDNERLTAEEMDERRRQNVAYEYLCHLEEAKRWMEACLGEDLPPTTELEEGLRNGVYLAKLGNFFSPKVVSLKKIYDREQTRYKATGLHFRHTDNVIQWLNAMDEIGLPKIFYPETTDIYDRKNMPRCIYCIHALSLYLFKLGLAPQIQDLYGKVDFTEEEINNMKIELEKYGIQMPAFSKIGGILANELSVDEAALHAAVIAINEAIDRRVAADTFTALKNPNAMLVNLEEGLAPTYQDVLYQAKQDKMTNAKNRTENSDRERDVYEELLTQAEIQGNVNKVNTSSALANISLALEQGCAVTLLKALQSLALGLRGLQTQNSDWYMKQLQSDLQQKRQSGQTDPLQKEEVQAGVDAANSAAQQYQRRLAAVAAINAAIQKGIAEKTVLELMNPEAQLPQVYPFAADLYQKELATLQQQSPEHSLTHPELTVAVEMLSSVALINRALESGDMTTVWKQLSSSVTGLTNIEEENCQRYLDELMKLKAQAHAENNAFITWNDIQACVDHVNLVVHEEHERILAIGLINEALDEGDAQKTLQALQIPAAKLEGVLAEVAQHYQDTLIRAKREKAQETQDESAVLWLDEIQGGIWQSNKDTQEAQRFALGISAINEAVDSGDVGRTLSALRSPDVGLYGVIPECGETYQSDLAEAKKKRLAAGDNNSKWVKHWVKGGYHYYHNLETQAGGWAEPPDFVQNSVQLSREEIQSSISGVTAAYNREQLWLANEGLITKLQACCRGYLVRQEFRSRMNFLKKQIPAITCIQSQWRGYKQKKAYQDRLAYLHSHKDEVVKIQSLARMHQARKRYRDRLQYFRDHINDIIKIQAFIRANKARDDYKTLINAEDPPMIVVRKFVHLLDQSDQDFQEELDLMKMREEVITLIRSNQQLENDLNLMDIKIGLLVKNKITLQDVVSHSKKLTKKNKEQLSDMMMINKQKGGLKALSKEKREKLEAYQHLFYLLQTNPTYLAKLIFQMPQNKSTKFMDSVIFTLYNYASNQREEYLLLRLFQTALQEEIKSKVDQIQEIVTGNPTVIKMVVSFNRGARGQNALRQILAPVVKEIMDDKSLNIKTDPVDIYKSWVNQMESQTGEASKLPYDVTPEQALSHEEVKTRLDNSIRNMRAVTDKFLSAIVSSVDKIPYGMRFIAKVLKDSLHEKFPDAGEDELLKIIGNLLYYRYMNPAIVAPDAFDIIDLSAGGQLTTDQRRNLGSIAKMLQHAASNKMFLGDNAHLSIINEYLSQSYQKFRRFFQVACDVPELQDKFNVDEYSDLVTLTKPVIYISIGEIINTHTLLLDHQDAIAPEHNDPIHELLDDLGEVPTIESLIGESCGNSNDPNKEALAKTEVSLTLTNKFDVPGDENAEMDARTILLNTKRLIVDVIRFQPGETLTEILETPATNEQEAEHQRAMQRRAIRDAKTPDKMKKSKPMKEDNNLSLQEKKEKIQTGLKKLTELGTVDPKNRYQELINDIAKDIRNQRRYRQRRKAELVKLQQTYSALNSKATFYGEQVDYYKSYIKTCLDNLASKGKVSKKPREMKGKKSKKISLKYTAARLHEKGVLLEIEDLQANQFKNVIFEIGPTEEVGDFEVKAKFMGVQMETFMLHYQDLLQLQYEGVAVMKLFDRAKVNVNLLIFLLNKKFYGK

B1: E-cadherin (mouse, endogenous, liver lysate) (other, UniProt P09803 157-884, looked up)
chain: DWVIPPISCPENEKGEFPKNLVQIKSNRDKETKVFYSITGQGADKPPVGVFIIERETGWLKVTQPLDREAIAKYILYSHAVSSNGEAVEDPMEIVITVTDQNDNRPEFTQEVFEGSVAEGAVPGTSVMKVSATDADDDVNTYNAAIAYTIVSQDPELPHKNMFTVNRDTGVISVLTSGLDRESYPTYTLVVQAADLQGEGLSTTAKAVITVKDINDNAPVFNPSTYQGQVPENEVNARIATLKVTDDDAPNTPAWKAVYTVVNDPDQQFVVVTDPTTNDGILKTAKGLDFEAKQQYILHVRVENEEPFEGSLVPSTATVTVDVVDVNEAPIFMPAERRVEVPEDFGVGQEITSYTAREPDTFMDQKITYRIWRDTANWLEINPETGAIFTRAEMDREDAEHVKNSTYVALIIATDDGSPIATGTGTLLLVLLDVNDNAPIPEPRNMQFCQRNPQPHIITILDPDLPPNTSPFTAELTHGASVNWTIEYNDAAQESLILQPRKDLEIGEYKIHLKLADNQNKDQVTTLDVHVCDCEGTVNNCMKAGIVAAGLQVPAILGILGGILALLILILLLLLFLRRRTVVKEPLLPPDDDTRDNVYYYDEEGGGEEDQDFDLSQLHRGLDARPEVTRNDVAPTLMSVPQYRPRPANPDEIGNFIDENLKAADSDPTAPPYDSLLVFDYEGSGSEAASLSSLNSSESDQDQDYDYLNEWGNRFKKLADMYGGGEDD
Q: Does B1 bind [1]?
A: no binding

Q: Does B2 bind [2]?
A: no binding

B3: human IQGAP2 (cDNA, transiently expressed in COS1 cells) (other, UniProt Q13576 1-1575, looked up)
chain: MPHEELPSLQRPRYGSIVDDERLSAEEMDERRRQNIAYEYLCHLEEAKRWMEVCLVEELPPTTELEEGLRNGVYLAKLAKFFAPKMVSEKKIYDVEQTRYKKSGLHFRHTDNTVQWLRAMESIGLPKIFYPETTDVYDRKNIPRMIYCIHALSLYLFKLGIAPQIQDLLGKVDFTEEEISNMRKELEKYGIQMPSFSKIGGILANELSVDEAALHAAVIAINEAVEKGIAEQTVVTLRNPNAVLTLVDDNLAPEYQKELWDAKKKKEENARLKNSCISEEERDAYEELLTQAEIQGNINKVNRQAAVDHINAVIPEGDPENTLLALKKPEAQLPAVYPFAAAMYQNELFNLQKQNTMNYLAHEELLIAVEMLSAVALLNQALESNDLVSVQNQLRSPAIGLNNLDKAYVERYANTLLSVKLEVLSQGQDNLSWNEIQNCIDMVNAQIQEENDRVVAVGYINEAIDEGNPLRTLETLLLPTANISDVDPAHAQHYQDVLYHAKSQKLGDSESVSKVLWLDEIQQAVDDANVDKDRAKQWVTLVVDVNQCLEGKKSSDILSVLKSSTSNANDIIPECADKYYDALVKAKELKSERVSSDGSWLKLNLHKKYDYYYNTDSKESSWVTPESCLYKESWLTGKEIEDIIEEVTVGYIRENIWSASEELLLRFQATSSGPILREEFEARKSFLHEQEENVVKIQAFWKGYKQRKEYMHRRQTFIDNTDSIVKIQSWFRMATARKSYLSRLQYFRDHNNEIVKIQSLLRANKARDDYKTLVGSENPPLTVIRKFVYLLDQSDLDFQEELEVARLREEVVTKIRANQQLEKDLNLMDIKIGLLVKNRITLEDVISHSKKLNKKKGGEMEILNNTDNQGIKSLSKERRKTLETYQQLFYLLQTNPLYLAKLIFQMPQNKSTKFMDTVIFTLYNYASNQREEYLLLKLFKTALEEEIKSKVDQVQDIVTGNPTVIKMVVSFNRGARGQNTLRQLLAPVVKEIIDDKSLIINTNPVEVYKAWVNQLETQTGEASKLPYDVTTEQALTYPEVKNKLEASIENLRRVTDKVLNSIISSLDLLPYGLRYIAKVLKNSIHEKFPDATEDELLKIVGNLLYYRYMNPAIVAPDGFDIIDMTAGGQINSDQRRNLGSVAKVLQHAASNKLFEGENEHLSSMNNYLSETYQEFRKYFKEACNVPEPEEKFNMDKYTDLVTVSKPVIYISIEEIISTHSLLLEHQDAIAPEKNDLLSELLGSLGEVPTVESFLGEGAVDPNDPNKANTLSQLSKTEISLVLTSKYDIEDGEAIDSRSLMIKTKKLIIDVIRNQPGNTLTEILETPATAQQEVDHATDMVSRAMIDSRTPEEMKHSQSMIEDAQLPLEQKKRKIQRNLRTLEQTGHVSSENKYQDILNEIAKDIRNQRIYRKLRKAELAKLQQTLNALNKKAAFYEEQINYYDTYIKTCLDNLKRKNTRRSIKLDGKGEPKGAKRAKPVKYTAAKLHEKGVLLDIDDLQTNQFKNVTFDIIATEDVGIFDVRSKFLGVEMEKVQLNIQDLLQMQYEGVAVMKMFDKVKVNVNLLIYLLNKKFYGK
Q: Does B3 bind [3]?
A: no binding
